Test results taken from patent US20120192294.

Test system: Aβ1-42 peptide, untreated (non-nitrated)

Substance: recombinant insulin degrading enzyme (IDE)
- degradation of Aβ (immunoblot with 6E10 after 2 h incubation): Analysis after 2 h of incubation showed decreased degradation of Aβ with increasing concentration of Sin-1
